Assay results: paper PMC13049513, “Assembly of a homohexameric minichromosome maintenance complex is dependent on ATP and DNA” (The Journal of Biological Chemistry, 2025)
Blank lines part the entries; values can stand above or below the molecule they belong to.

Assays:
[1] = target: T1, MacMCM^ΔWHD (Candidatus Mancarchaeum acidiphilum, UniProt A0A218NN99, E391Q, form not given); assay: X-ray crystal structure, […] Å; type: binding; settings: crystals grown with 10 mM ATP and 10 mM MgCl2; nucleotide modelled as ADP; ATPase site at subunit interface, five of six sites
T1 construct: gene Mia14_0611

[2] = target: T1, MacMCM^ΔWHD; assay: analytical SEC: ATP-dependent hexamer formation with ssDNA; type: binding; settings: 1 mM ATP, 10 mM MgCl2, FAM-polyT50 ssDNA, pH 8.0; Walker B mutant, no ATP hydrolysis
[3] = target: T2, MacMCM (Candidatus Mancarchaeum acidiphilum, UniProt A0A218NN99, E391Q); assay: as above; type: binding; settings: 1 mM ATP, 10 mM MgCl2, FAM-polyT50 ssDNA, pH 8.0; Walker B mutant, no ATP hydrolysis
T2 construct: gene Mia14_0611; full length, codon-optimised gene, N-terminal His10 tag cut with TEV protease, from E. coli BL21(DE3) pLysS; monomer without ligands, homohexamer with ATP and DNA

[4] = test system: MacMCM E391Q (Mancarchaeum acidophilum); assay: fluorescence anisotropy; settings: Anisotropy: 250 mM potassium glutamate, 20 mM Tris pH 8.0, 1 nM forked DNA, with 4 mM nucleotide and 10 mM MgCl2 where present; temperature not stated (EMSA …)
[5] = test system: MacMCMΔWHD E391Q (Mancarchaeum acidophilum), PDB:8Q67_1; assay: fluorescence anisotropy; settings: Anisotropy: 250 mM potassium glutamate, 20 mM Tris pH 8.0, 1 nM forked DNA, with 4 mM nucleotide and 10 mM MgCl2 where present; temperature not stated (EMSA …)
[6] = target: MacMCM, minichromosome maintenance protein from Mancarchaeum acidiphilum (Mancarchaeum acidiphilum); assay: SEC; analytical SEC, Superose 6 Increase 10/300 GL, 200 mM NaCl, 20 mM Tris pH 8.0, 5% glycerol; protein 10 uM with equimolar fluorescein-polyT50 ssDNA; 1 mM ATP and 10 mM MgCl2 in the buffer
[7] = target: MacMCM DNEK (plus-SB mutant D59N–E61K); assay: analytical size-exclusion chromatography (SEC), self-association; settings: Protein samples (10 μM); Superdex S200 Increase 10/300 GL; UV absorbance at 280 nm; parent: est. 13.1; read off a plot
[8] = target: MacMCM D311K (minus-SB mutant); assay: as above; settings: Protein samples (10 μM); Superdex S200 Increase 10/300 GL; UV absorbance at 280 nm; parent: est. 13.1; read off a plot
[9] = target: MacMCM triple site minus-SB mutant (D311K, D366K, R543E); assay: as above; settings: Protein samples (10 μM); Superdex S200 Increase 10/300 GL; UV absorbance at 280 nm; parent: est. 13.1; read off a plot
[10] = target: MacMCM D366K (minus-SB mutant); assay: as above; settings: Protein samples (10 μM); Superdex S200 Increase 10/300 GL; UV absorbance at 280 nm; parent: est. 13.1; read off a plot
[11] = target: MacMCM KRED (plus-SB mutant K476R–E537D); assay: as above; settings: Protein samples (10 μM); Superdex S200 Increase 10/300 GL; UV absorbance at 280 nm; parent: est. 13.1; read off a plot
[12] = target: MacMCM NDSK (plus-SB mutant N484D–S532K); assay: as above; settings: Protein samples (10 μM); Superdex S200 Increase 10/300 GL; UV absorbance at 280 nm; parent: est. 13.1; read off a plot
[13] = target: MacMCM R543E (minus-SB mutant); assay: as above; settings: Protein samples (10 μM); Superdex S200 Increase 10/300 GL; UV absorbance at 280 nm; parent: est. 13.1; read off a plot
[14] = target: MacMCM^E391Q, Walker B mutant of MacMCM (Mancarchaeum acidiphilum); assay: SEC; analytical SEC, Superose 6 Increase 10/300 GL, 200 mM NaCl, 20 mM Tris pH 8.0, 5% glycerol; protein 10 uM with equimolar fluorescein-polyT50 ssDNA; 1 mM ATP and 10 mM MgCl2 in the buffer
[15] = target: MacMCM^ΔWHD.E391Q, MacMCM lacking the C-terminal winged-helix domain with the Walker B mutation E391Q (Mancarchaeum acidiphilum); assay: crystal structure; MacMCM^ΔWHD.E391Q crystallised with 10 mM ATP and 10 mM MgCl2, 20 °C; ADP and phosphate in the active sites; 2.59 Å
[16] = target: MacMCM^ΔWHD.E391Q, MacMCM lacking the C-terminal winged-helix domain with the Walker B mutation E391Q (Mancarchaeum acidiphilum); assay: SEC; analytical SEC, Superose 6 Increase 10/300 GL, 200 mM NaCl, 20 mM Tris pH 8.0, 5% glycerol; protein 10 uM with equimolar fluorescein-polyT50 ssDNA; 1 mM ATP and 10 mM MgCl2 in the buffer
[17] = target: SsoNPfuCMCM, chimeric MCM of the N-terminal domain of SsoMCM fused with the ATPase domain of PfuMCM (Sulfolobus solfataricus | not stated) (UniProt Q9UXG1); assay: SEC-MALS; SEC-MALLS, Superose S6 Increase 10/300 GL, 200 mM KCl, 50 mM Tris-Cl pH 8.0, 5% glycerol, 0.5 mM DTT; 100 ul protein at 1 to 10 mg/ml; no ligands
[18] = target: T3, MacMCM triple-site plus-SB mutant (D59N–E61K, K476R–E537D, N484D–S532K); assay: analytical size-exclusion chromatography (SEC), self-association; settings: chain shown with the change; Protein samples (10 μM); Superdex S200 Increase 10/300 GL; UV absorbance at 280 nm; parent: est. 13.1; read off a plot
T3 chain: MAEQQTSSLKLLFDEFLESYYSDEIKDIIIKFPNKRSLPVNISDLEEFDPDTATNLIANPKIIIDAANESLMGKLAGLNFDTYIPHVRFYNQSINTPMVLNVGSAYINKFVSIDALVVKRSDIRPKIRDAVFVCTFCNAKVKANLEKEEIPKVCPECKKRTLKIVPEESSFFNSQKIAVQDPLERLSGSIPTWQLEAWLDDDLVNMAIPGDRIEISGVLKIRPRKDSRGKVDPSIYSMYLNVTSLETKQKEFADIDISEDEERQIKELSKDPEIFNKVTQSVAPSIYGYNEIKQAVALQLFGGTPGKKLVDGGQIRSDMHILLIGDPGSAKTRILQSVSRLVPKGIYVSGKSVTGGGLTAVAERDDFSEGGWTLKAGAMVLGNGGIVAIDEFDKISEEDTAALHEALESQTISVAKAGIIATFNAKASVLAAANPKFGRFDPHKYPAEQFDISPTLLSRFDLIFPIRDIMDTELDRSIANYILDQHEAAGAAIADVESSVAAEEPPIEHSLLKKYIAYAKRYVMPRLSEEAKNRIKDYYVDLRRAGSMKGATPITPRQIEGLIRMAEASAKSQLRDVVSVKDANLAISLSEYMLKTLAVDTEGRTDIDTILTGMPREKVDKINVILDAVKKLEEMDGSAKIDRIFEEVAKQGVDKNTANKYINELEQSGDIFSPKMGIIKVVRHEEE

T1 sequence (A0A218NN99 entry or part of it E391Q, form open): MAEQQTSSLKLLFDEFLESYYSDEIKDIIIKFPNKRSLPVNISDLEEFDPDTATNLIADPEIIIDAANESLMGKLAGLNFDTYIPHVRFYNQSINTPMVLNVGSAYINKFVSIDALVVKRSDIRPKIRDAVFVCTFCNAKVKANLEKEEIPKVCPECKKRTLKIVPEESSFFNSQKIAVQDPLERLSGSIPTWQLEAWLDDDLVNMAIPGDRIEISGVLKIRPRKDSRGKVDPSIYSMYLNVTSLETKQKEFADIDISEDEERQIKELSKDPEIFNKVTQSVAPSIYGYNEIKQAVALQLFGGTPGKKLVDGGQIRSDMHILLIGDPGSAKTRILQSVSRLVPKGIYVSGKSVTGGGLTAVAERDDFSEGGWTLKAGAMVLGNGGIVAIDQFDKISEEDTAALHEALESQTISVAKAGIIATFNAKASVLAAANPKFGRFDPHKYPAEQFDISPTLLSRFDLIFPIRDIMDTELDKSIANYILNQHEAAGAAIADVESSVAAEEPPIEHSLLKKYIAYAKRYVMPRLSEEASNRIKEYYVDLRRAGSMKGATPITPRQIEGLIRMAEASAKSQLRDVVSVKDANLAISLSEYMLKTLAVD
T2 sequence (A0A218NN99 entry or part of it E391Q): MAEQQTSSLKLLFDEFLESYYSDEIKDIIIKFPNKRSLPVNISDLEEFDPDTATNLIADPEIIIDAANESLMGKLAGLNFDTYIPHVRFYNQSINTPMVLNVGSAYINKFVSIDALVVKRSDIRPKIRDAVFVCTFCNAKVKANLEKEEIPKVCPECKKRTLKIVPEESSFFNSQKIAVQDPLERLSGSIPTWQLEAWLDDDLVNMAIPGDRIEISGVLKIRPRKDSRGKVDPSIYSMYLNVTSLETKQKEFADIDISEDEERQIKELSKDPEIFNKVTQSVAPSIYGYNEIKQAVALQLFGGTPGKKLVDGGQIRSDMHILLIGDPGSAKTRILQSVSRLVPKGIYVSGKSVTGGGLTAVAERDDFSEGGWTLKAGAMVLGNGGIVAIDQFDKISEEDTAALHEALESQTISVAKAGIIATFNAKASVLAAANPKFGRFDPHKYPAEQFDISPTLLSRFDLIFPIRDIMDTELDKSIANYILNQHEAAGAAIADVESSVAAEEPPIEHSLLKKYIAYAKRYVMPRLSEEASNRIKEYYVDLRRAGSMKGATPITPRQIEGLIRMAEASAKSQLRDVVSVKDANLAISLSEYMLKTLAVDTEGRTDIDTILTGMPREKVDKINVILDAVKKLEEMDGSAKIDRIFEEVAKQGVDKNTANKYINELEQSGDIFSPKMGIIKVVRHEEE

Molecule: Nc1ncnc2c1ncn2[C@@H]1O[C@H](COP(=O)(O)OP(=O)(O)O)[C@@H](O)[C@H]1O [ADP]
- X-ray crystal structure, 2.6 Å [1]: ADP was identified in five of the six ATPase active sites

Molecule: Nc1ncnc2c1ncn2[C@@H]1O[C@H](COP(=O)(O)OP(=O)(O)OP(=O)(O)O)[C@@H](O)[C@H]1O [ATP]
- analytical SEC: ATP-dependent hexamer formation with ssDNA [2]: both MacMCM^E391Q and MacMCM^ΔWHD.E391Q coeluted with ssDNA at elution volumes consistent with a homohexamer
- analytical SEC: ATP-dependent hexamer formation with ssDNA [3]: both MacMCM^E391Q and MacMCM^ΔWHD.E391Q coeluted with ssDNA at elution volumes consistent with a homohexamer

Molecule: GGGACGCGTCGGCCTGGCACGTCGGCCGCTGCGGCCAGGCACCCGATGGCGTTTGTTTGTTTGTTTGTTTGTTT / TTTGTTTGTTTGTTTGTTTGTTTGTTTGTTTGCCGACGTGCCAGGCCGACGCGTCCC [forked DNA]
- Kd [4]: 0.78 µM
- Kd [5]: 0.114 µM

Molecule: MacMCM^E391Q, Walker B mutant of MacMCM (enzyme)
- stoichiometry N [14]: 6

Molecule: SsoNPfuCMCM, chimeric MCM of the N-terminal domain of SsoMCM fused with the ATPase domain of PfuMCM (from UniProt Q9UXG1 2-321) (enzyme)
- stoichiometry N [17]: 6

B1: MacMCM, minichromosome maintenance protein from Mancarchaeum acidiphilum D59N; E61K; K476R; E537D; N484D; S532K (protein)
chain: MAEQQTSSLKLLFDEFLESYYSDEIKDIIIKFPNKRSLPVNISDLEEFDPDTATNLIANPKIIIDAANESLMGKLAGLNFDTYIPHVRFYNQSINTPMVLNVGSAYINKFVSIDALVVKRSDIRPKIRDAVFVCTFCNAKVKANLEKEEIPKVCPECKKRTLKIVPEESSFFNSQKIAVQDPLERLSGSIPTWQLEAWLDDDLVNMAIPGDRIEISGVLKIRPRKDSRGKVDPSIYSMYLNVTSLETKQKEFADIDISEDEERQIKELSKDPEIFNKVTQSVAPSIYGYNEIKQAVALQLFGGTPGKKLVDGGQIRSDMHILLIGDPGSAKTRILQSVSRLVPKGIYVSGKSVTGGGLTAVAERDDFSEGGWTLKAGAMVLGNGGIVAIDEFDKISEEDTAALHEALESQTISVAKAGIIATFNAKASVLAAANPKFGRFDPHKYPAEQFDISPTLLSRFDLIFPIRDIMDTELDRSIANYILDQHEAAGAAIADVESSVAAEEPPIEHSLLKKYIAYAKRYVMPRLSEEAKNRIKDYYVDLRRAGSMKGATPITPRQIEGLIRMAEASAKSQLRDVVSVKDANLAISLSEYMLKTLAVDTEGRTDIDTILTGMPREKVDKINVILDAVKKLEEMDGSAKIDRIFEEVAKQGVDKNTANKYINELEQSGDIFSPKMGIIKVVRHEEE
- other: SEC peak retention volume [18]: 11.6 mL

Continued, values first:

- stoichiometry N [6]: 6
Molecule: MacMCM, minichromosome maintenance protein from Mancarchaeum acidiphilum (enzyme)

- other: SEC peak retention volume [7]: 12.9 mL
Molecule: MacMCM, minichromosome maintenance protein from Mancarchaeum acidiphilum D59N; E61K

- other: SEC peak retention volume [8]: 13.4 mL
Molecule: MacMCM, minichromosome maintenance protein from Mancarchaeum acidiphilum D311K

- other: SEC peak retention volume [9]: 13.3 mL
Molecule: MacMCM, minichromosome maintenance protein from Mancarchaeum acidiphilum D311K; D366K; R543E

- other: SEC peak retention volume [10]: 13.4 mL
Molecule: MacMCM, minichromosome maintenance protein from Mancarchaeum acidiphilum D366K

- other: SEC peak retention volume [11]: 13.3 mL
Molecule: MacMCM, minichromosome maintenance protein from Mancarchaeum acidiphilum K476R; E537D

- other: SEC peak retention volume [12]: 13 mL
Molecule: MacMCM, minichromosome maintenance protein from Mancarchaeum acidiphilum N484D; S532K

- other: SEC peak retention volume [13]: 13.3 mL
Molecule: MacMCM, minichromosome maintenance protein from Mancarchaeum acidiphilum R543E

- stoichiometry N [15]: 6
- stoichiometry N [16]: 6
Molecule: MacMCM^ΔWHD.E391Q, MacMCM lacking the C-terminal winged-helix domain with the Walker B mutation E391Q (domain or fragment)
